Measurements from patent US20220146535A1.

What was measured:
[1] = molecular target: recombinant hTau-pT217 protein having the amino acid sequence of SEQ ID NO: 1 (human) (UniProt P10636); experiment: BLI (Octet Red96), antibody captured on Protein A biosensor, hTau-pT217 0.4115-300 nM in solution, 1:1 fit, 25 C
[2] = molecular target: N-terminal biotin labeled peptide of SEQ ID NO. 26 with phosphorylated threonine at residue 7 (human); experiment: BLI (Octet Red96), biotinylated peptide on streptavidin biosensor, IgG at 5 ug/mL, 300 s association and 300 s dissociation
[3] = molecular target: T1, N-terminal biotin labeled peptide of SEQ ID NO. 26 without phosphorylated threonine at residue 7 (human); experiment: as above
T1 sequence (peptide, N-terminal biotin; threonine at residue 7 not phosphorylated): RTPSLPTPPTR

[4] = molecular target: recombinant hTau-pT217 protein having the amino acid sequence of SEQ ID NO: 1 (human) (UniProt P10636); experiment: BLI (Octet Red96), antibody captured on Protein A biosensor, hTau-pT217 in solution, 1:1 fit, 25 C; column head prints (M^-1s^-1 units), paragraph 52 says s^-1
[5] = molecular target: recombinant hTau-pT217 protein having the amino acid sequence of SEQ ID NO: 1 (human) (UniProt P10636); experiment: BLI (Octet Red96), antibody captured on Protein A biosensor, hTau-pT217 in solution, KD=koff/kon; column head prints (nM), paragraph 52 says molar units; not normalized for avidity

UniProt P10636, sequence (P10636 other isoform, or with tags, fused parts or gaps limits assumed): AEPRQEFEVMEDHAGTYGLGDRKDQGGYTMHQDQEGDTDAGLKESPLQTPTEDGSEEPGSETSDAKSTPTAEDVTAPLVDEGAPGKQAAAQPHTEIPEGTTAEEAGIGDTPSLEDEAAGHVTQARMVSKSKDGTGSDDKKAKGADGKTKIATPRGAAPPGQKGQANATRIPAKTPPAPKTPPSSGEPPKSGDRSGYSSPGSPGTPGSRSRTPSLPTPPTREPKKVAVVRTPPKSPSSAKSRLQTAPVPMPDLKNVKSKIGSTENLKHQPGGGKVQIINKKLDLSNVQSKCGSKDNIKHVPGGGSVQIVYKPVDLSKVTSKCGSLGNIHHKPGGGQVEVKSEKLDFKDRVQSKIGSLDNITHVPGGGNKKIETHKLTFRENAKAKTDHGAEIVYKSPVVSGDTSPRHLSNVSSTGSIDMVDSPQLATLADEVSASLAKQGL

kon [1]: 339000 M⁻¹ s⁻¹
binding signal at the end of dissociation [2]: 4.42 nm
binding signal at the end of dissociation [3]: -0.0024 nm
koff [4]: 0.000236 s⁻¹
Kd [5]: 0.695 nM
B1: mAb A, exemplified rabbit anti-hTau-pT217 antibody (antibody)
heavy: QSVEESGGRLVTPGTPLTLTCTVSGLSPSWYGVHWVRQAPGKGLEWIGVLRAGSHTYYAGWAKGRFAISKTSTTVALKITSPTTEDTAIYFCGSVGRGIWGPGTLVTVSLGQPKAPSVFPLAPCCGDTPSSTVTLGCLVKGYLPEPVTVTWNSGTLTNGVRTFPSVRQSSGLYSLSSVVSVTSSSQPVTCNVAHPATNTKVDKTVAPSTCSKPTCPPPELLGGPSVFIFPPKPKDTLMISRTPEVTCVVVDVSQDDPEVQFTWYINNEQVRTARPPLREQQFNSTIRVVSTLPIAHQDWLRGKEFKCKVHNKALPAPIEKTISKARGQPLEPKVYTMGPPREELSSRSVSLTCMINGFYPSDISVEWEKNGKAEDNYKTTPAVLDSDGSYFLYSKLSVPTSEWQRGDVFTCSVMHEALHNHYTQKSISRSPGK
light: AQVLTQTASPVSATVGGTVTINCQASLAVYNNNYLAWYQQKPGQPPKRLIYLASSLSSGVSSHFKGSGSGTQFTLTISDVQADDAATYFCQGSYDCTIADCVAFGGGTEVVVKGDPVAPTVLIFPPAADQVATGTVTIVCVANKYFPDVTVTWEVDGTTQTTGIENSKTPQNSADNTYNLSSTLTLTSTQYNSHKEYTCKVTQGTTSVVQSFNRGDC
